Laboratory results published in the supplement of paper PMC7877785.
± gives the uncertainty stated by the source.

Assay: self-splicing fitness, log relative to wild type (ln ratio); higher = more splicing; Tetrahymena group I intron in knt gene, E. coli kanamycin selection, DiMSum; sequences stand for … in CUCUCU…GGAGGGAAAAGUUAUCAGGCAUGCACCUGGUAGCUAGUCUUUAAACCAAUAGAUUGCAUCGGUUUAAAAGGCAAGACCGUCAAAUUGCGGGAAAGGGGUCAACAGCCGUUCAGUACCAAGUCUCAGGGGAAACUUUGAGAUGGCCUUGCAAAGGGUAUGGUAAUAAGCUGACGGACAUGGUCCUAACCACGCAGCCAAGUCCUAAGUCAACAGAUCUUCUGUUGAUAUGGAUGCAGUUCACAGACUAAAUGUCGGUCGGGGAAGAUGUAUUCUUCUCAUAAGAUAUAGUCGGACCUCUCCUUAAUGGGAGCUAGCGGAUGAAGUGAUGCAACACUGGAGCCGCUGGGAACUAAUUUGUAUGCGAAAGUAUAUUGAUUAGUUUUGGAGUACUCGUGGUCG
Outline: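 Pooled colonies went to amplicon sequencing on an Illumina HiSeq 2500 after six replicate transformations. The plates were LB agar with 100 μg/mL carbenicillin, 50 μM IPTG and 0.2% rhamnose, with or without 25 μg/mL kanamycin, incubated overnight at 37°C or 30°C. The E. coli BL21(DE3) library had all eight P1ex-region intron nucleotides randomised, the intron placed in the knt kanamycin-resistance gene on pET-22b(+). DiMSum fitness is the error-weighted combination of replicate fold changes, kanamycin against none, normalised to wild type.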

Sequence	self-splicing fitness (ln) (30 °C)	self-splicing fitness (ln) (37 °C)
AAAAAGCAAUAUUACGACAU	0.00477 ± 0.011	0.11 ± 0.032
AAAAAGCAAUAUUACGACUC	0.0755 ± 0.088	0.373 ± 0.11
AAAAAGCAAUAUUACGACUG	-1.14 ± 0.098	-0.0274 ± 0.11
AAAAAGCAAUAUUACGAGAU	-2.85 ± 0.13	-1.86 ± 0.2
AAAAAGCAAUAUUACGAGGC	-4.09 ± 0.33	-2.57 ± 0.32
AAAAAGCAAUAUUACGAGUU	-1.33 ± 0.065	-0.488 ± 0.07
AAAAAGCAAUAUUACGAUAC	-2.28 ± 0.16	-0.696 ± 0.13
AAAAAGCAAUAUUACGCAUA	-1.5 ± 0.11	-0.715 ± 0.1
AAAAAGCAAUAUUACGCCGC	-2.19 ± 0.43	-2.01 ± 0.33
AAAAAGCAAUAUUACGCGUA	-1.61 ± 0.083	-0.153 ± 0.08
AAAAAGCAAUAUUACGCUUU	-4.64 ± 0.27	-2.32 ± 0.19
AAAAAGCAAUAUUACGGCCU	-0.199 ± 0.069	0.253 ± 0.095
AAAAAGCAAUAUUACGUACU	0.142 ± 0.054	0.151 ± 0.077
AAAAAGCAAUAUUACGUAGG	-1.7 ± 0.093	-1.66 ± 0.11
AAAAAGCAAUAUUACGUCAG	-2.75 ± 0.15	-1.14 ± 0.13
AAAAAGCAAUAUUACGUGGA	-2.42 ± 0.1	-1.86 ± 0.1
AAAAAGCAAUAUUACGUGGC	-3.59 ± 0.21	-1.59 ± 0.14
AAAAAGCAAUAUUACGUUCG	-0.479 ± 0.078	-1.04 ± 0.1
AAAAAGCAAUAUUACGUUGU	-3.71 ± 0.15	-2.01 ± 0.14
AAACAGCAAUAUUACGAAAA	-2.95 ± 0.15	-1.8 ± 0.14
AAACAGCAAUAUUACGAAUC	-4.43 ± 0.46	-1.54 ± 0.22
AAACAGCAAUAUUACGACGA	-1.32 ± 0.096	0.0122 ± 0.099
AAACAGCAAUAUUACGACGC	-1.43 ± 0.081	-0.718 ± 0.096
AAACAGCAAUAUUACGAGGA	-4 ± 0.26	-1.97 ± 0.13
AAACAGCAAUAUUACGAGUG	-2.71 ± 0.075	-1.8 ± 0.074
AAACAGCAAUAUUACGAUAG	-2.76 ± 0.1	-2.14 ± 0.12

Sequence	self-splicing fitness (ln) (30 °C)	self-splicing fitness (ln) (37 °C)
AAACAGCAAUAUUACGAUUU	-0.279 ± 0.053	0.219 ± 0.071
AAACAGCAAUAUUACGCAAC	-3.6 ± 0.29	-1.93 ± 0.17
AAACAGCAAUAUUACGCACU	-0.221 ± 0.079	0.0967 ± 0.091
AAACAGCAAUAUUACGCAGU	-3.42 ± 0.15	-1.44 ± 0.12
AAACAGCAAUAUUACGCGCA	-0.282 ± 0.081	-0.19 ± 0.087
AAACAGCAAUAUUACGCGCC	-1.13 ± 0.1	-0.456 ± 0.12
AAACAGCAAUAUUACGGACU	-0.635 ± 0.097	-0.406 ± 0.12
AAACAGCAAUAUUACGGGAG	-3.34 ± 0.13	-2.66 ± 0.14
AAACAGCAAUAUUACGGUAC	-3.52 ± 0.2	-2.75 ± 0.26
AAACAGCAAUAUUACGUACG	-2.54 ± 0.11	-0.985 ± 0.11
AAACAGCAAUAUUACGUAUG	-2.03 ± 0.094	-1.31 ± 0.11
AAACAGCAAUAUUACGUCAC	-4.1 ± 0.23	-2.59 ± 0.2
AAACAGCAAUAUUACGUGAG	-0.858 ± 0.04	-0.552 ± 0.064
AAAGAGCAAUAUUACGAAUA	-1.42 ± 0.35	–
AAAGAGCAAUAUUACGAAUC	-3.27 ± 0.24	-2.7 ± 0.26
AAAGAGCAAUAUUACGACAA	-2.27 ± 0.23	-2.95 ± 0.38
AAAGAGCAAUAUUACGACGG	-3.27 ± 0.29	-2.83 ± 0.43
AAAGAGCAAUAUUACGACUG	-3 ± 0.32	–
AAAGAGCAAUAUUACGAGGG	-3.04 ± 0.27	-2.34 ± 0.39
AAAGAGCAAUAUUACGAUCG	-2.55 ± 0.12	-1.29 ± 0.15
AAAGAGCAAUAUUACGCCGU	-3.07 ± 0.48	-1.74 ± 0.42
AAAGAGCAAUAUUACGCGUG	-3.02 ± 0.14	-1.79 ± 0.12
AAAGAGCAAUAUUACGGAAU	-2.79 ± 0.19	-2.57 ± 0.27
AAAGAGCAAUAUUACGGAGC	-2.8 ± 0.39	–
AAAGAGCAAUAUUACGGAUA	-2.75 ± 0.27	-1.92 ± 0.3
AAAGAGCAAUAUUACGGAUU	-0.754 ± 0.18	-1.45 ± 0.17

Sequence	self-splicing fitness (ln) (30 °C)	self-splicing fitness (ln) (37 °C)
AAAGAGCAAUAUUACGGCAG	-4.02 ± 0.42	-3.07 ± 0.29
AAAGAGCAAUAUUACGGCCU	-2.16 ± 0.13	-0.199 ± 0.13
AAAGAGCAAUAUUACGGGGA	-2.48 ± 0.35	-1.81 ± 0.28
AAAGAGCAAUAUUACGUAAU	-2.16 ± 0.15	0.0244 ± 0.13
AAAGAGCAAUAUUACGUCCA	-1.76 ± 0.33	-1.93 ± 0.36
AAAGAGCAAUAUUACGUCUC	-3.18 ± 0.29	-1.47 ± 0.18
AAAGAGCAAUAUUACGUGAC	-4.21 ± 0.21	-2.62 ± 0.2
AAAGAGCAAUAUUACGUGCA	-2.3 ± 0.14	-1.19 ± 0.13
AAAGAGCAAUAUUACGUUAG	-3.49 ± 0.15	-3.11 ± 0.25
AAAGAGCAAUAUUACGUUAU	-3.71 ± 0.25	-2.49 ± 0.23
AAAUAGCAAUAUUACGAAAA	-2.66 ± 0.35	-1.47 ± 0.22
AAAUAGCAAUAUUACGAACA	-0.981 ± 0.14	-0.0486 ± 0.12
AAAUAGCAAUAUUACGAAUC	-2.64 ± 0.18	-2.29 ± 0.22
AAAUAGCAAUAUUACGAGUG	-2.42 ± 0.12	-0.435 ± 0.1
AAAUAGCAAUAUUACGAUAC	-2.95 ± 0.22	-2.64 ± 0.36
AAAUAGCAAUAUUACGCAAC	-3.16 ± 0.37	-1.53 ± 0.26
AAAUAGCAAUAUUACGCCUA	-0.886 ± 0.13	-0.23 ± 0.13
AAAUAGCAAUAUUACGCGAU	-3.4 ± 0.2	-1.47 ± 0.14
AAAUAGCAAUAUUACGCGCU	-0.381 ± 0.15	-0.606 ± 0.19
AAAUAGCAAUAUUACGCGUU	-2.16 ± 0.087	-1.22 ± 0.092
AAAUAGCAAUAUUACGCUAC	–	-1.68 ± 0.3
AAAUAGCAAUAUUACGCUAG	-1.55 ± 0.13	-1 ± 0.15
AAAUAGCAAUAUUACGGAGG	-3.39 ± 0.2	-2.86 ± 0.26
AAAUAGCAAUAUUACGGGCC	-2.49 ± 0.32	-2.55 ± 0.41
AAAUAGCAAUAUUACGGUAA	-2.14 ± 0.21	-1.5 ± 0.16
